Where a chain is given by its changes, count along the chain named. One block for each binder: values may come before it.
Experiments:
human C5 antigen [1] = biological target: T1, human C5 antigen (human, UniProt P01031 19-673; P01031 678-1676); assay: BLI (ForteBio Octet)
T1 construct: The later ELISAs detect it with an anti-histidine antibody, so it carries a His tag; also called complement component 5

human C5 antigen [2] = biological target: T1, human C5 antigen; assay: ELISA, antibody coated, human C5 titrated; EC50 is the antigen concentration
Method: The wells were blocked with 2.5% skimmed milk dissolved in a phosphate-buffered saline (PBS) for 1 hour, and washed with a PBST solution (a PBS solution containing 20% Tween). Then, 100 μL of the human C5 gradient diluent (the C5 was diluted to 1 ug/ml, followed by 3 X dilution to give 7 gradients, with 100 μL/well) was added into each well, and incubated at room temperature for 1 hr.
EC₅₀ can be used to evaluate the concentration of antigen at the 50% binding capacity of various antibodies to the antigen.

[3] = biological target: T2, C5 of normal human serum (NHS) (human, UniProt P01031 19-1676); assay: cell-based or functional assay
[4] = biological target: T2, C5 of normal human serum (NHS); assay: cell-based or functional assay; remark: listed apart in the source

Kd (human C5 antigen [1]): 0.369 nM | koff (human C5 antigen [1]): 7.86e-05 s⁻¹ | kon (human C5 antigen [1]): 213000 M⁻¹ s⁻¹ | EC50 (human C5 antigen [2]): 0.169 µg/mL
B1: humanized antibody 16H46L39am (antibody, human IgG1, kappa, L234A L235A, V domains shown)
VH: QVQLVQSGAEVKKPGASVKVSCKASGYTFTNYGMNWVRQAPGQGLEWMGWINTYTGEPTYADDFKGRFTFTLDTSTSTAYLELSSLRSEDTAVYYCARTKVPLYFAYAMDYWGQGTLVTVSS
VL: DIQLTQSPSSLSASVGDRVTITCKASQSVDYEGDSYLNWYQQKPGKAPKLLIYAASNLESGIPSRFSGSGSGTDFTLTISSLQPEDFATYYCQQSNEDPSTFGGGTKVEIKR
IC50 (ng/ml), classical pathway (CP) hemolysis inhibition [3]: 330 ng/mL | IC90 (ng/ml), classical pathway (CP) hemolysis inhibition [3]: 507 ng/mL

Kd (human C5 antigen [1]): 0.359 nM | koff (human C5 antigen [1]): 7.81e-05 s⁻¹ | kon (human C5 antigen [1]): 217000 M⁻¹ s⁻¹ | EC50 (human C5 antigen [2]): 0.117 µg/mL
B2: humanized antibody 16H1L2m (antibody, human IgG1, kappa, L234A L235A, V domains shown)
VH: B1 VH with A9S, V11L, T69V, T71S, T76V, T78M, E82Q, L83I, R87K, S88A
VL: DIVLTQSPSSLAVSLGERATINCKASQSVDYEGDSYLNWYQQKPGQPPKLLIYAASNLESGIPDRFSGSGSGTDFTLTISSLQAEDVAVYYCQQSNEDPSTFGGGTKVEIKR
IC50 (ng/ml), classical pathway (CP) hemolysis inhibition [3]: 347 ng/mL | IC90 (ng/ml), classical pathway (CP) hemolysis inhibition [3]: 511 ng/mL

B3: Eculizumab (antibody, human IgG2, kappa, V domains shown)
VH: QVQLVQSGAEVKKPGASVKVSCKASGYIFSNYWIQWVRQAPGQGLEWMGEILPGSGSTEYTENFKDRVTMTRDTSTSTVYMELSSLRSEDTAVYYCARYFFGSSPNWYFDVWGQGTLVTVSS
VL: DIQMTQSPSSLSASVGDRVTITCGASENIYGALNWYQQKPGKAPKLLIYGATNLADGVPSRFSGSGSGTDFTLTISSLQPEDFATYYCQNVLNTPLTFGQGTKVEIKR
IC50 (ng/ml), inhibition of classical pathway hemolysis of sheep red blood cells by 1% NHS [4]: 401 ng/mL | IC50 (ng/ml), classical pathway (CP) hemolysis inhibition [3]: 559 ng/mL | IC90 (ng/ml), classical pathway (CP) hemolysis inhibition [3]: 1340 ng/mL

B4: chimeric antibody CHI-16 (antibody, human IgG1, kappa, L234A L235A, V domains shown)
VH: QIQLVQSGPELKKPGETVKISCKASGYTFTNYGMNWVKQAPGKGLKWMGWINTYTGEPTYADDFKGRFAFSLETSASTAYLQINNLKNEDTATYFCTRTKVPLYFAYAMDYWGQGTSVTVSS
VL: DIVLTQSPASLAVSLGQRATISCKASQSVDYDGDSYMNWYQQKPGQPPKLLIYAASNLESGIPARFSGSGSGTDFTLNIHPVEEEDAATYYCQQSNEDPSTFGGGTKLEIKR
IC50 (ng/ml), inhibition of classical pathway hemolysis of sheep red blood cells by 1% NHS [4]: 204 ng/mL | IC50 (ng/ml), classical pathway (CP) hemolysis inhibition [3]: 302 ng/mL | IC90 (ng/ml), classical pathway (CP) hemolysis inhibition [3]: 500 ng/mL

Source: patent US20230212272A1 (LONGBIO PHARMA SUZHOU, published 2023)
